B1: VHH antibody including the amino acid sequence represented by SEQ ID NO: 39 (VHH)
VHH: QLQLVESGGGLVQAGGSLRLSCVASGFPFASSAMAWFRQAPGKEREFVASISYRGITTYYAQPVKGRFTMSRDNAKNTVYLQMNSLKPEDTAVYYCYAKSIWGNAYWGQGTQVTVSP
notes: also called Monovalent 65; not shown: C-terminal 3xFlag tag and His tag from the modified pET22b(+) vector
B2: VHH antibody including the amino acid sequence represented by SEQ ID NO: 38 (VHH)
VHH: QVQLVESGGGVVQTGGSLRLSCAASGSTFSIGAMGWYRQAPGKQRELVATVNRASRTIYADSVRGRFTISRDNAKNLVYLQMNNLKPEDTAVYYCNVIATSASGRGVTSTSWGQGSQVTVSS
notes: Alpaca VHH expressed in E. coli; also called monomer antibody; not shown: C-terminal 3xFlag tag and His tag from the modified pET22b(+) vector
B3: VHH antibody including the amino acid sequence represented by SEQ ID NO: 40 (VHH)
VHH: QLQLVEPGGGVVQPGGSLRLSCLASGSDFSLGAMGWYRQAPGKQRELVAIINRASWTRYADSVKGRFTISRDNSKNLVFLQMNNLKPDDTAVYYCNAIATSASGRGVTSTSWGQGSQVTVSS
notes: not shown: C-terminal 3xFlag tag and His tag from the modified pET22b(+) vector
B4: VHH antibody including the amino acid sequence represented by SEQ ID NO: 41 (VHH)
VHH: EVQLVESGGGLVQAGGSLRLSCAVSGRTSSRYVMGWVRQAPGKEREFLAAISWSAGYTFYRDSVKGRFTISRDNAKNTVYLQMNSLKPEDTAVYYCNADENGLGRKRGFGSWGQGTQVTVSS
notes: also called anti-noro antibody; not shown: C-terminal 3xFlag tag and His tag from the modified pET22b(+) vector
B5: VHH antibody including the amino acid sequence represented by SEQ ID NO: 43 (VHH)
VHH: QLQLVESGGGLVQPGGSLRLSCAASGFTLDYYAIGWFRQAPGNEREFVAAISWNGGSTYYADSVKGRFTISRDNAKETVYLQMNSLKPEDTGVYYCNYRPQFGLGYNYWGQGTQVTVSS
notes: as for B4
B6: dimer antibody (SEQ ID NO: 98) in which the structure domain of SEQ ID NO: 38 and the structure domain of SEQ ID NO: 39 are connected from N to C via a linker (VHH)
chain: QVQLVESGGGVVQTGGSLRLSCAASGSTFSIGAMGWYRQAPGKQRELVATVNRASRTIYADSVRGRFTISRDNAKNLVYLQMNNLKPEDTAVYYCNVIATSASGRGVTSTSWGQGSQVTVSSGGGGSGGGASGGGGSQLQLVESGGGLVQAGGSLRLSCVASGFPFASSAMAWFRQAPGKEREFVASISYRGITTYYAQPVKGRFTMSRDNAKNTVYLQMNSLKPEDTAVYYCYAKSIWGNAYWGQGTQVTVSPEPKTPKPQSASAA
notes: Single-chain tandem heterodimer of two VHH domains (38 then 39); also called Divalent 98
B7: dimer antibody having two of the structural domains each having the amino acid sequence represented by SEQ ID NO: 38 (SEQ ID NO: 97) (VHH)
chain: QVQLVESGGGVVQTGGSLRLSCAASGSTFSIGAMGWYRQAPGKQRELVATVNRASRTIYADSVRGRFTISRDNAKNLVYLQMNNLKPEDTAVYYCNVIATSASGRGVTSTSWGQGSQVTVSSGGGGSGGGASGGGGSQVQLVESGGGVVQTGGSLRLSCAASGSTFSIGAMGWYRQAPGKQRELVATVNRASRTIYADSVRGRFTISRDNAKNLVYLQMNNLKPEDTAVYYCNVIATSASGRGVTSTSWGQGSQVTVSSEPKTPKPQSASAA
notes: also called Divalent 97
B8: VHH antibody including the amino acid sequence represented by SEQ ID NO: 42 (VHH)
VHH: ELQLVESGGGAVHTGGSLRLSCAVSGRTDIRYAMGWFRQAPGREREFVAAISWNGDDTFYADSVKGRFTISRDNAKNAVSLQMDSLRPEDTAVYYCNARNSYAAFARAYWGQGTQVTVSS
notes: as for B4
B9: dimer antibody (SEQ ID NO: 99) in which the structure domain of SEQ ID NO: 39 and the structure domain of SEQ ID NO: 38 are connected from N to C via a linker (VHH)
chain: QLQLVESGGGLVQAGGSLRLSCVASGFPFASSAMAWFRQAPGKEREFVASISYRGITTYYAQPVKGRFTMSRDNAKNTVYLQMNSLKPEDTAVYYCYAKSIWGNAYWGQGTQVTVSPGGGGSGGGASGGGGSQVQLVESGGGVVQTGGSLRLSCAASGSTFSIGAMGWYRQAPGKQRELVATVNRASRTIYADSVRGRFTISRDNAKNLVYLQMNNLKPEDTAVYYCNVIATSASGRGVTSTSWGQGSQVTVSSEPKTPKPQSASAA
notes: Single-chain tandem heterodimer of two VHH domains (39 then 38); also called Divalent 99

Columns and labels:
[1] = molecular target: T1, noro antigen (recombinant of the p-domain protein of the GII/4 norovirus (NSW-2012)) (GII/4 norovirus (NSW-2012), UniProt P54635 1-539); experiment: SPR (T200, CM5), noro antigen immobilized, VHH as analyte added serially
T1 construct: Viral capsid protein antigen; also called antigen of the norovirus; recombinant p-domain protein
T1 chain: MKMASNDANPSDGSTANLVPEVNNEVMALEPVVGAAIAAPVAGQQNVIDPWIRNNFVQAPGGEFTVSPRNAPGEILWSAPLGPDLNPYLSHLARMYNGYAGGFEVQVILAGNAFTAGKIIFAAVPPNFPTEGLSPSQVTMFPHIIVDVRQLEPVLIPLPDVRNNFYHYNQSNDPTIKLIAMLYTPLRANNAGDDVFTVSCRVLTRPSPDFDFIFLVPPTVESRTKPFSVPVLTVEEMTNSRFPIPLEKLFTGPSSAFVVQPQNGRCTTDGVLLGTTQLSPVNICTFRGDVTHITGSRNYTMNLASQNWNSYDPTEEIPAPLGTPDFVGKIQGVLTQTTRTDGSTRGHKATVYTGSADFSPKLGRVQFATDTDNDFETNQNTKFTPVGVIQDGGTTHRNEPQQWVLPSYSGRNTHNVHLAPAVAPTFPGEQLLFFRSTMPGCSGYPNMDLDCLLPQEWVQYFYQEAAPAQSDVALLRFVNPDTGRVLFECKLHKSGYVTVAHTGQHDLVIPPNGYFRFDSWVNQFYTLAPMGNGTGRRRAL

[2] = molecular target: T2, VLP noro antigen derived from the norovirus GII/4, composed by associating 90 dimers of VP1 each including … (norovirus GII/4, UniProt P54635 1-539); experiment: SPR (T200, CM3), VLP noro antigen immobilized, antibody as analyte
T2 construct: Virus-like particle; also called solid phase VLP
T2 chain: T1 chain

[3] = molecular target: T1, noro antigen (recombinant of the …); experiment: SPR (T200), VHH immobilized, noro antigen as analyte added serially
[4] = molecular target: T1, noro antigen (recombinant of the …); experiment: SPR (T200, CM5), noro antigen immobilized, VHH as analyte, separate concentrations

| Binder | Kd [1] | Kd [2] | Kd [3] | koff [2] | kon [2] | Kd [4] |
| --- | --- | --- | --- | --- | --- | --- |
| B1 | 15.8 nM | 54.8 nM | 15.9 nM | – | – | – |
| B2 | 1.15 nM | 149 nM | 4.15 nM | 0.0214 s⁻¹ | 144000 M⁻¹ s⁻¹ | – |
| B3 | 9.5 nM | – | 9.57 nM | – | – | – |
| B4 | – | – | 4.98 nM | – | – | 81.6 nM |
| B5 | – | – | 10.3 nM | – | – | 5.45 nM |
| B6 | – | 0.485 nM | – | 0.00198 s⁻¹ | 4.08e+06 M⁻¹ s⁻¹ | – |
| B7 | – | 0.13 nM | – | 0.000302 s⁻¹ | 2.32e+06 M⁻¹ s⁻¹ | – |
| B8 | – | – | 13.1 nM | – | – | 63.8 nM |
| B9 | – | 0.00947 nM | – | 0.000356 s⁻¹ | 3.75e+07 M⁻¹ s⁻¹ | – |

Reference: patent US20200062828A1 (PANASONIC INTELLECTUAL PROPERTY MANAGEMENT, published 2020)
